Measurements published in publication PMC8834691, “Deletion of Specific Conserved Motifs from the N-Terminal Domain of αB-Crystallin Results in the Activation of Chaperone Functions” (International Journal of Molecular Sciences, 2022).

Target: the molecule itself
Experiment: SEC-MALS; 0.1 mg protein in 0.25 mL phosphate buffer, incubated at 37 °C for 1 h; TSK G5000PWXL column, 0.75 mL/min; subunits per oligomer = oligomeric mass divided by subunit mass

B1: αB-crystallin with residues 21–28 and 54–61 deleted (natural protein, human, UniProt P02511 1-175, looked up)
chain: MDIAIHHPWIRRPFFPFHSPGEHLLESDLFPTSTSLSPFYLRPPSDTGLSEMRLEKDRFSVNLDVKHFSPEELKVKVLGDVIEVHGKHEERQDEHGFISREFHRKYRIPADVDPLTITSSLSSDGVLTVNGPRKQVSGPERTIPITREEKPAVTAAPKK
notes: Gene from GenScript in pET23a(+), without the C-terminal His-tag; the in-frame T7 tag was removed by PCR; Small homo-oligomer, average molar mass 85 kDa, on average close to four subunits; also called αBΔ21–28, Δ54–61; αB∆21–28, ∆54–61; source: E. coli BL21(DE3) pLysS, purified (45% ammonium sulfate precipitation, Superdex G200 gel filtration)
  stoichiometry N: ~4 subunits per oligomer

B2: wild-type αB-crystallin (natural protein, human, UniProt P02511 1-175, looked up)
chain: MDIAIHHPWIRRPFFPFHSPSRLFDQFFGEHLLESDLFPTSTSLSPFYLRPPSFLRAPSWFDTGLSEMRLEKDRFSVNLDVKHFSPEELKVKVLGDVIEVHGKHEERQDEHGFISREFHRKYRIPADVDPLTITSSLSSDGVLTVNGPRKQVSGPERTIPITREEKPAVTAAPKK
notes: αB-crystallin, human, wild type, recombinant; called full-length αB-WT; Polydisperse homo-oligomer (average molar mass 558 kDa by MALS); also called αB-WT; WT-αB; source: E. coli BL21(DE3) pLysS, purified (45% ammonium sulfate precipitation, Superdex G200 gel filtration)
  binding result: binds

B3: αB-crystallin with residues 54–61 deleted (natural protein, human, UniProt P02511 1-175, looked up)
chain: MDIAIHHPWIRRPFFPFHSPSRLFDQFFGEHLLESDLFPTSTSLSPFYLRPPSDTGLSEMRLEKDRFSVNLDVKHFSPEELKVKVLGDVIEVHGKHEERQDEHGFISREFHRKYRIPADVDPLTITSSLSSDGVLTVNGPRKQVSGPERTIPITREEKPAVTAAPKK
notes: Polydisperse homo-oligomer (average molar mass 262 kDa by MALS); also called αBΔ54–61; αB∆54–61; source: E. coli BL21(DE3) pLysS, purified (45% ammonium sulfate precipitation, Superdex G200 gel filtration)
  binding result: binds
